Data reported in US7041463B2, “Orthologues of human receptors and methods of use” (Pharmacopeia Drug Discovery, Inc., priority 2000, dated 2006).
Blank lines part the entries; values can stand above or below the compound they belong to.

Key:
[1] = target: canine/human chimeric bradykinin B1 receptor (UniProt Q9BDQ5); assay: radioligand competition binding
[2] = target: human bradykinin B1 receptor (human) (UniProt P46663); assay: radioligand competition binding
[3] = target: pig bradykinin B1 receptor (UniProt Q8HZN9); assay: radioligand competition binding
[4] = target: rabbit bradykinin B1 receptor (rabbit) (UniProt P48748); assay: radioligand competition binding
[5] = target: rhesus macaque bradykinin B1 receptor (UniProt Q8HZP2); assay: radioligand competition binding
[6] = target: tree shrew bradykinin B1 receptor (UniProt Q8HZP1); assay: radioligand competition binding
dog B1 = target: T1, dog B1 (Canis lupus familiaris, UniProt Q9BDQ5, D322E/F324Y/R319K); assay: [3H]-des-Arg10-kallidin binding, 293E membranes, dog B1 (canine/human chimera); conditions: 0.6 nM [3H]-dAKd
T1 construct: the chimeric canine/human receptor described above was used in the experiments described below; C-terminal cytoplasmic tail of human bradykinin B1 receptor (fusion partner of the chimera); expressed in transfected cells; host or cells: 293-EBNA (293E) cells, membranes
T1 sequence (Q9BDQ5 with tags, fused parts or gaps R319K/D322E/F324Y): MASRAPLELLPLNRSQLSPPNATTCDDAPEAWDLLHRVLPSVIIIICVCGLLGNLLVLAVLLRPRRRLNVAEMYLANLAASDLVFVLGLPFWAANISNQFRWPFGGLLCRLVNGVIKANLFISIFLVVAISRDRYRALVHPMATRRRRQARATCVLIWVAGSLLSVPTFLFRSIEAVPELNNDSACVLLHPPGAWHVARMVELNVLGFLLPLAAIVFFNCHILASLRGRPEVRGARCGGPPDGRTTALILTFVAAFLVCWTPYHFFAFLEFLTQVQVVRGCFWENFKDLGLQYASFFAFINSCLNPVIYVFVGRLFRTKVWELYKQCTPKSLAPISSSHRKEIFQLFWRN
Description: Additionally, a canine/human chimeric bradykinin B1 receptor comprising amino acids 1 to 320 of the canine sequence and amino acids 319–353 of human bradykinin B1 receptor was generated. Any number of chimeric molecules, for example, a chimera comprising amino acids 1–315 of the canine sequence and amino acids 314–353 of the human sequence can be used.
Membrane preparations for use in accordance with the methods of the present invention were generated as follows. 293E cells expressing B1 receptors were harvested and pelleted. Cells were washed once with PBS and once with a membrane buffer (for example, 10 mM HEPES pH 7.5, 1 μM phosphoramidon, 3 μM amastatin, 1 μM captopril, 2 μM dithiothreitol (DTT)). Cells were resuspended in membrane buffer and Dounce homogenized on ice 35 times. The membranes were collected by centrifugation at 15,000×g for 30 min. at 4° C. and resuspended in membrane buffer containing 0.2% bovine serum albumin (BSA) at a final concentration of approximately 5×10^7 cell equivalents per ml. Aliquots were flash frozen and stored at −80° C. […]
(§1) The method of the present invention employs a binding assay such as the one described below. […] 50 μl of scintillation fluid was added to each well and plates were counted in a Wallac Microbeta® TriLux for 10 min. per well.

CXCR2 receptor = assay: CXCR2 radioligand binding, 293E membranes, monkey/primate receptors; conditions: recombinant CXCR2 from six primate species
Experimental: Membrane preparations for use in accordance with the methods of the present invention were generated as follows. 293E cell monolayers expressing CXCR2 receptors were washed twice with PBS and 5 ml of ice cold homogenizing buffer (for example, 10 mM HEPES pH 8.0, 10 mM EDTA). Cells were resuspended in membrane buffer and Dounce homogenized on ice 35 times. The membranes were collected by centrifugation at 15,000×g for 30 min. at 4° C. and resuspended in membrane storage buffer (10 mM Tris-HCl pH8.0, 1.2 mM MgSO4, 0.1 mM EDTA, 25 mM NaCl, 1 unit/ml bacitracin) at a final concentration of approximately 5×10^7 cell equivalents per ml. Aliquots were flash frozen and stored at −80° C. Frozen aliquots were subsequently thawed, diluted, and sonicated on ice using a Branson Sonifier® 250 (4×5 sec, 40% output).
Prior to use in a binding assay, a membrane preparation is “calibrated” as described below to determine the amount of membrane preparation to be used. A frozen sample of a membrane preparation is thawed and the preparation diluted in assay buffer to obtain several different concentrations of membranes, for example, 1:5, 1:10, 1:20, 1:40 and so on. The diluted membrane preparation is sonicated in a bath style sonicator for 5 minutes at room temperature. Each dilution is plated in a 96-well plate, for example, with quintuplicate samples for binding of ligand and wells to evaluate non-specific binding in triplicate. The dilutions that yield approximately 200 cpm total counts are chosen for subsequent assays.
For determining binding affinity for the orthologous CXCR2 receptors, described herein, the method of the present invention employs a binding assay such as the one described below. A suitable binding assay buffer for receptor binding consists of 10 mM Tris pH 8.0, 0.1 mM EDTA, 1.2 mM MgSO4, 25 mM NaCl and 0.03% CHAPS (Sigma, St. Louis, Mo.). […] 50 μl of scintillation fluid was added to each well and plates were counted in a Wallac Microbeta® TriLux for 1 min. per well.

tree shrew B1 receptor = assay: [3H]-des-Arg10-kallidin binding, 293E membranes, tree shrew B1; design: species or system tree shrew (Tupaia minor); conditions: read-out: average dissociation constant (KD)
Experimental: (§2) Membrane preparations for use in accordance with the methods of the present invention were generated as follows. 293E cells expressing B1 receptors were harvested and pelleted. Cells were washed once with PBS and once with a membrane buffer (for example, 10 mM HEPES pH 7.5, 1 μM phosphoramidon, 3 μM amastatin, 1 μM captopril, 2 μM dithiothreitol (DTT)). Cells were resuspended in membrane buffer and Dounce homogenized on ice 35 times. The membranes were collected by centrifugation at 15,000×g for 30 min. at 4° C. and resuspended in membrane buffer containing 0.2% bovine serum albumin (BSA) at a final concentration of approximately 5×10^7 cell equivalents per ml. Aliquots were flash frozen and stored at −80° C. Frozen aliquots were subsequently thawed, diluted, and sonicated on ice using a Branson Sonifier® 250 (4×5 sec, 40% output).
(§3) Prior to use in a binding assay, a membrane preparation is “calibrated” as described below to determine the amount of membrane preparation to be used. […]
as §1

[7] = target: B1 receptors (species homologues); assay: [3H]-des-Arg10-kallidin binding across all cloned B1 orthologues; conditions: 0.6 nM or 1.5 nM (rat) [3H]-dAKd
Experimental: as §2, §3, §1

[8] = target: canine/human chimeric bradykinin B1 receptor (UniProt Q9BDQ5); assay: radioligand saturation binding; legend: [3H]-des-Arg10-kallidin
[9] = target: human bradykinin B1 receptor (human) (UniProt P46663); assay: as above
[10] = target: pig bradykinin B1 receptor (UniProt Q8HZN9); assay: as above
[11] = target: rabbit bradykinin B1 receptor (rabbit) (UniProt P48748); assay: as above
[12] = target: rhesus macaque bradykinin B1 receptor (UniProt Q8HZP2); assay: as above
[13] = target: tree shrew bradykinin B1 receptor (UniProt Q8HZP1); assay: as above

Chain of rabbit bradykinin B1 receptor (rabbit) (P48748 whole entry): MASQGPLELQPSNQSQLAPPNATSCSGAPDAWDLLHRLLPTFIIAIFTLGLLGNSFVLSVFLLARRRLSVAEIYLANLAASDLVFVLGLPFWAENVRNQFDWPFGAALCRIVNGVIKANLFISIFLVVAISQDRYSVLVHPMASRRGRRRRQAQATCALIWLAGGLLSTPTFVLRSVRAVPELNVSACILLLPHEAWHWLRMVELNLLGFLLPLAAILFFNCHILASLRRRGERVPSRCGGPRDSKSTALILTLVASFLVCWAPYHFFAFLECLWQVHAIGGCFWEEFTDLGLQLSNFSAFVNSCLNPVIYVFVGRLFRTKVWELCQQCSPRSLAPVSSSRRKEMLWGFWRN
Chain of pig bradykinin B1 receptor (Q8HZN9 whole entry): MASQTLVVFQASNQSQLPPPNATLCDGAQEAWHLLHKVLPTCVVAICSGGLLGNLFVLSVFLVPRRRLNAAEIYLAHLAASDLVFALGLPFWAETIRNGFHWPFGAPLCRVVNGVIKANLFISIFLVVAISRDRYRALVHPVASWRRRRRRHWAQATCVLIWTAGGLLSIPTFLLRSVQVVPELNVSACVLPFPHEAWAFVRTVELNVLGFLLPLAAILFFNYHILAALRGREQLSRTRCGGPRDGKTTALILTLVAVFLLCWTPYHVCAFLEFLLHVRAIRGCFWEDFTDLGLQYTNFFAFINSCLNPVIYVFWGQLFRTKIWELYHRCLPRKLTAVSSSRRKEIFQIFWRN
Chain of tree shrew bradykinin B1 receptor (Q8HZP1 whole entry): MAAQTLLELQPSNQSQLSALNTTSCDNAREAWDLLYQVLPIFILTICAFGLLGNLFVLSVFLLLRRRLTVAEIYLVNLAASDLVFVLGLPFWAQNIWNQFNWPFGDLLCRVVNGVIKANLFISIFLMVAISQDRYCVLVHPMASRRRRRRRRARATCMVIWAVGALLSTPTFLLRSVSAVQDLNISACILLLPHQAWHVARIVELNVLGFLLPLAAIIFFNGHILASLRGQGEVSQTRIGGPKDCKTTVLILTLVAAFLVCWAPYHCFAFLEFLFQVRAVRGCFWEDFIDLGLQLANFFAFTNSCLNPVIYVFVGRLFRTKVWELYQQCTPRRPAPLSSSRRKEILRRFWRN
Chain of des-Arg^10-kallidin (P01042 whole entry, looked up): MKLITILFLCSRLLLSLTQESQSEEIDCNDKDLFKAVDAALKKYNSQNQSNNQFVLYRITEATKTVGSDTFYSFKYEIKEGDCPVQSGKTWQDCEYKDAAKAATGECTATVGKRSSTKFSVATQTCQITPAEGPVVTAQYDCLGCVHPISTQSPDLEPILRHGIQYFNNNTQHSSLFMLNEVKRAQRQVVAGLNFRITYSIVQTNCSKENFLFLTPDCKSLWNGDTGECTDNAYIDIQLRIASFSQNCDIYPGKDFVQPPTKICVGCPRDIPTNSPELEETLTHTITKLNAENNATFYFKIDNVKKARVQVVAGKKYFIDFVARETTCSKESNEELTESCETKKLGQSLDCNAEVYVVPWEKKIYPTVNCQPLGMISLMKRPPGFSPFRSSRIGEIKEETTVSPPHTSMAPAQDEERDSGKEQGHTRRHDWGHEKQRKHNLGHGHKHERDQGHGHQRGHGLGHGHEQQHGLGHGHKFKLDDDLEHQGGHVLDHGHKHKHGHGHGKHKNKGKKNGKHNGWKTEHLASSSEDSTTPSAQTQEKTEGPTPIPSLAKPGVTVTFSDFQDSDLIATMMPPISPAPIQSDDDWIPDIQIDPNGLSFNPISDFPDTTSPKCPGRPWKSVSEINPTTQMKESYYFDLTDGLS
Chain of [des-Arg^10] [Leu^9]kallidin (P01042 whole entry, looked up): as above

Compound: [des-Arg^10] [Leu^9]kallidin (from UniProt P01042 380-388)
Ki [1]: 120 nM | Ki [2]: 4.6 nM | Ki [3]: 9.5 nM | Ki [4]: 9.3 nM | Ki [5]: 9.5 nM | Ki [6]: 22 nM

affinity (K1) at dog B1, in words (dog B1): more than an order of magnitude weaker
Compound: [des-Arg^10] [Leu^9]kallidin [dALKd]

binding to the encoded receptors, in words (CXCR2 receptor): capable of binding
Compound: Gro-alpha: ligand bound by the encoded CXCR2 receptors

Compound: N=C(N)NCCC[C@H](NC(=O)[C@@H](N)CCCCN)C(=O)N1CCC[C@H]1C(=O)N1CCC[C@H]1C(=O)NCC(=O)N[C@@H](Cc1ccccc1)C(=O)N[C@@H](CO)C(=O)N1CCC[C@H]1C(=O)N[C@@H](Cc1ccccc1)C(=O)O [dAKd, des-Arg^10-Kallidin]
Kd (tree shrew B1 receptor): 4.2 nM | affinity (K1) at all B1 species homologues, in words [7]: approximately equipotent | affinity (K1) at all B1 species homologues, in words ([7]; listed as dAKD): strong affinity

binding to the encoded receptors, in words (CXCR2 receptor): capable of binding
Compound: ENA-78: ligand bound by the encoded CXCR2 receptors

Compound: des-Arg^10-kallidin (from UniProt P01042 380-388)
Ki [1]: 4.2 nM | Ki [2]: 1.5 nM | Ki [3]: 2.3 nM | Ki [4]: 3.4 nM | Ki [5]: 3.3 nM | Ki [6]: 6.1 nM | Kd [8]: 3.3 ? | Kd [9]: 0.6 ? | Kd [10]: 1.9 ? | Kd [11]: 1.3 ? | Kd [12]: 2.8 ? | Kd [13]: 4.2 ?

binding to the encoded receptors, in words (CXCR2 receptor): capable of binding
Compound: interleukin 8: native ligand of CXCR2
